The record followed here is the supplement of paper PMC10201428.

± gives the standard deviation of the averaged measurements.

Data set [1] has as its system VchCAST RNA-guided transposition machinery (E. coli BL21(DE3) host, lacZ target). In words: relative integration efficiency (T-LR orientation) vs wild-type transposon end (log2 (normalized fold change)); transposon end mutated: right end (5 bp flank + 75 bp right end); higher = more efficient transposition. The procedure, abridged:
(§1)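 In E. coli BL21(DE3), a T7-driven effector plasmid was paired with a pUC57 mini-transposon donor containing 1549 left-end or 1849 right-end barcoded transposon variants. Cells grew on plates with 0.1 mM IPTG at 37°C for 18 h. Relative integration efficiency was derived from Illumina reads of genomic integration junctions against input plasmids, as a log-transformed output/input barcode fold change normalised to reference barcodes.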

Data set [2] shares this test system. In words: relative integration efficiency (T-RL orientation) vs wild-type transposon end (log2 (normalized fold change)); transposon end mutated: right end (5 bp flank + 75 bp right end); higher = more efficient transposition. The procedure, abridged: as §1

Take “ACATTTGTTGATACAACCCTAAAATGATAATTACACCCCTAAATTGATAATTATCACACCCCTAAATTGATATTGCCTCTGATCATAGTCAGACCAACATTGCTACGACCCGTATTCGCACCGACAC”: the “relative integration efficiency (log2)” value in data set [1] is -3.01 ± 0.1; in data set [2], -4.68 ± 0.11.

For the sequence “ACATTTGTTGATACAACCTAAAAATGATAATTACACCCATAAATTGATAATTATCACACCCATAAATTGATATTGCCTCTGATCATAGTCAGACCAACATTGCTACGACCCGTATTCGCACCGACAC”, the “relative integration efficiency (log2)” value in data set [1] was -0.819 ± 0.32; in data set [2] it was -0.616 ± 0.0067.

Take “ACATTTGTTGATACAACCTATTAATGATAATTACACCCATAAATTGATAATTATCACACCCATAAATTGATATTGCCTCTGATCATAGTCAGACCAACATTGCTACGACCCGTATTCGCACCGACAC”: the “relative integration efficiency (log2)” value in data set [1] is -1.46 ± 0.16; in data set [2], -0.905 ± 0.052.

On to “ACATTTGTTGATACAACCTTAAAATGATAATTACACCCTTAAATTGATAATTATCACACCCTTAAATTGATATTGCCTCTGATCATAGTCAGACCAACATTGCTACGACCCGTATTCGCACCGACAC”, for which the “relative integration efficiency (log2)” value was -0.505 ± 0.42 in data set [1] and -1.34 ± 0.22 in data set [2].

Regarding “ACATTTGTTGATACAACGATAAAATGATAATTACACCGATAAATTGATAATTATCACACCGATAAATTGATATTGCCTCTGATCATAGTCAGACCAACATTGCTACGACCCGTATTCGCACCGACAC”, the figures for the “relative integration efficiency (log2)” value in data set [1] and in data set [2] were 0.086 ± 0.12 and -0.127 ± 0.12, respectively.

With “ACATTTGTTGATACAACGTATAAATGATAATTACACCCATAAATTGATAATTATCACACCCATAAATTGATATTGCCTCTGATCATAGTCAGACCAACATTGCTACGACCCGTATTCGCACCGACAC”, the “relative integration efficiency (log2)” value in data set [1] is -2.43 ± 0.46; in data set [2], -1.91 ± 0.13.

Turning to “ACATTTGTTGATACAACGTTAAAATGATAATTACACCCATAAATTGATAATTATCACACCCATAAATTGATATTGCCTCTGATCATAGTCAGACCAACATTGCTACGACCCGTATTCGCACCGACAC”, the “relative integration efficiency (log2)” value in data set [1] was -1.02 ± 0.3; in data set [2] it was -0.928 ± 0.01.

Consider “ACATTTGTTGATACAAGCATAAAATGATAATTACACGCATAAATTGATAATTATCACACGCATAAATTGATATTGCCTCTGATCATAGTCAGACCAACATTGCTACGACCCGTATTCGCACCGACAC”, for which the “relative integration efficiency (log2)” value in data set [1] was -0.218 ± 0.08; in data set [2], -0.3912 ± 0.0011.

As to “ACATTTGTTGATACAAGGATAAAATGATAATTACACCCATAAATTGATAATTATCACACCCATAAATTGATATTGCCTCTGATCATAGTCAGACCAACATTGCTACGACCCGTATTCGCACCGACAC”, the “relative integration efficiency (log2)” value in data set [1] was -0.87 ± 0.12; in data set [2], -0.223 ± 0.044.

For the sequence “ACATTTGTTGATACAAGGTAAAAATGATAATTACACCCATAAATTGATAATTATCACACCCATAAATTGATATTGCCTCTGATCATAGTCAGACCAACATTGCTACGACCCGTATTCGCACCGACAC”, the “relative integration efficiency (log2)” value in data set [1] is -2.67 ± 0.22; in data set [2], -2.26 ± 0.11.

“ACATTTGTTGATACACAACGCCCCGTCGCCGGCACAAACGCCCGGTCGCCGGCGACACAAACGCCCGGTCGCGGTAAGAGGATCATAGTCAGACCAACATTGCTACGACCCGTATTCGCACCGACAC”: the entries for the “relative integration efficiency (log2)” value in data set [1] and in data set [2] were -5.17 ± 0.85 and -7.89 ± 0.53, respectively.

With “ACATTTGTTGATACACAACTAAAATGATAATTACACCCATAAATTGATAATTATCACACCCATAAATTGATATTGCCTCTGATCATAGTCAGACCAACATTGCTACGACCCGTATTCGCACCGACAC”, the entries for the “relative integration efficiency (log2)” value in data set [1] and in data set [2] were -3.43 ± 1.4 and -3.13 ± 0.19, respectively.

Regarding “ACATTTGTTGATACACACATAAAATGATAATTACACCCATAAATTGATAATTATCACACCCATAAATTGATATTGCCTCTGATCATAGTCAGACCAACATTGCTACGACCCGTATTCGCACCGACAC”, the entries for the “relative integration efficiency (log2)” value in data set [1] and in data set [2] were -0.763 ± 0.33 and -0.5621 ± 0.0046, respectively.

On to “ACATTTGTTGATACACCCATAAAATGATAATTACAACCATAAATTGATAATTATCACAACCATAAATTGATATTGCCTCTGATCATAGTCAGACCAACATTGCTACGACCCGTATTCGCACCGACAC”, for which the entries for the “relative integration efficiency (log2)” value in data set [1] and in data set [2] were -0.642 ± 0.019 and -0.707 ± 0.2, respectively.

As to “ACATTTGTTGATACACCCATAAATTGATAATTACAACCATAAAATGATAATTATCACAACCATAAAATGATAATTACTCTGATCATAGTCAGACCAACATTGCTACGACCCGTATTCGCACCGACAC”, the “relative integration efficiency (log2)” value in data set [1] was -0.939 ± 0.36; in data set [2] it was -0.638 ± 0.31.

On to “ACATTTGTTGATACACCCATAAATTGATAATTACAACCATAAAATGATAATTATCACAACCATAAAGTGATATTTACTCTGATCATAGTCAGACCAACATTGCTACGACCCGTATTCGCACCGACAC”, for which the “relative integration efficiency (log2)” value in data set [1] is -0.912 ± 0.79; in data set [2], -0.736 ± 0.32.

Regarding “ACATTTGTTGATACACCCATAAATTGATAATTACAACCATAAAATGATAATTATCACAACCATAAGTTGATATTTTCTCTGATCATAGTCAGACCAACATTGCTACGACCCGTATTCGCACCGACAC”, the “relative integration efficiency (log2)” value in data set [1] is -0.36 ± 0.66; in data set [2], -0.795 ± 0.13.

Consider “ACATTTGTTGATACACCCATAAATTGATAATTACAACCATAAAATGATAATTATCACAACCATATATTGATATCTCCTCTGATCATAGTCAGACCAACATTGCTACGACCCGTATTCGCACCGACAC”, for which the “relative integration efficiency (log2)” value in data set [1] is -0.397 ± 0.063; in data set [2], -0.596 ± 0.35.

As for “ACATTTGTTGATACACCCATAAATTGATAATTACAACCATAAAATGATAATTATCACACCCATAAATTGATAATTACTCTGATCATAGTCAGACCAACATTGCTACGACCCGTATTCGCACCGACAC”, the figures for the “relative integration efficiency (log2)” value in data set [1] and in data set [2] were -0.234 ± 0.37 and -0.421 ± 0.15, respectively.

Regarding “ACATTTGTTGATACACCCATAAATTGATAATTACAACCATAAAATGATAATTATCACACCCATAAATTGATATTGCCTCTGATCATAGTCAGACCAACATTGCTACGACCCGTATTCGCACCGACAC”, the “relative integration efficiency (log2)” value is -0.673 ± 0.45 in data set [1] and -0.475 ± 0.089 in data set [2].

For the sequence “ACATTTGTTGATACACCCATAAATTGATAATTACAACCATAAAATGATAATTATCAGTGGGTATTTAACTATAACGCTCTGATCATAGTCAGACCAACATTGCTACGACCCGTATTCGCACCGACAC”, the results for the “relative integration efficiency (log2)” value in data set [1] and in data set [2] were 2.58 ± 0.045 and -0.217 ± 0.012, respectively.

As to “ACATTTGTTGATACACCCATAAATTGATAATTACAACCATAAAGTGATATTTATCACAACCATAAAATGATAATTACTCTGATCATAGTCAGACCAACATTGCTACGACCCGTATTCGCACCGACAC”, the “relative integration efficiency (log2)” value in data set [1] was -0.432 ± 0.17; in data set [2], -0.58 ± 0.22.

“ACATTTGTTGATACACCCATAAATTGATAATTACAACCATAAAGTGATATTTATCACAACCATAAAGTGATATTTACTCTGATCATAGTCAGACCAACATTGCTACGACCCGTATTCGCACCGACAC”: the “relative integration efficiency (log2)” value in data set [1] was -0.828 ± 0.015; in data set [2] it was -0.483 ± 0.29.

As to “ACATTTGTTGATACACCCATAAATTGATAATTACAACCATAAAGTGATATTTATCACAACCATAAGTTGATATTTTCTCTGATCATAGTCAGACCAACATTGCTACGACCCGTATTCGCACCGACAC”, the “relative integration efficiency (log2)” value was -0.743 ± 0.17 in data set [1] and -0.418 ± 0.21 in data set [2].

For “ACATTTGTTGATACACCCATAAATTGATAATTACAACCATAAAGTGATATTTATCACAACCATATATTGATATCTCCTCTGATCATAGTCAGACCAACATTGCTACGACCCGTATTCGCACCGACAC”, the “relative integration efficiency (log2)” value in data set [1] was 0.318 ± 0.42; in data set [2] it was -0.0337 ± 0.3.

“ACATTTGTTGATACACCCATAAATTGATAATTACAACCATAAAGTGATATTTATCACACCCATAAATTGATAATTACTCTGATCATAGTCAGACCAACATTGCTACGACCCGTATTCGCACCGACAC”: the “relative integration efficiency (log2)” value is -0.96 ± 0.16 in data set [1] and -0.494 ± 0.16 in data set [2].

With “ACATTTGTTGATACACCCATAAATTGATAATTACAACCATAAAGTGATATTTATCACACCCATAAATTGATATTGCCTCTGATCATAGTCAGACCAACATTGCTACGACCCGTATTCGCACCGACAC”, the entries for the “relative integration efficiency (log2)” value in data set [1] and in data set [2] were -0.466 ± 0.18 and -0.477 ± 0.26, respectively.

On to “ACATTTGTTGATACACCCATAAATTGATAATTACAACCATAAAGTGATATTTATCAGTGGGTATTTAACTATAACGCTCTGATCATAGTCAGACCAACATTGCTACGACCCGTATTCGCACCGACAC”, for which the “relative integration efficiency (log2)” value in data set [1] is 2.08 ± 0.1; in data set [2], -0.744 ± 0.28.

“ACATTTGTTGATACACCCATAAATTGATAATTACAACCATAAGTTGATATTTTTCACAACCATAAAATGATAATTACTCTGATCATAGTCAGACCAACATTGCTACGACCCGTATTCGCACCGACAC”: the “relative integration efficiency (log2)” value was -0.748 ± 0.17 in data set [1] and -0.644 ± 0.31 in data set [2].

For the sequence “ACATTTGTTGATACACCCATAAATTGATAATTACAACCATAAGTTGATATTTTTCACAACCATAAAGTGATATTTACTCTGATCATAGTCAGACCAACATTGCTACGACCCGTATTCGCACCGACAC”, the “relative integration efficiency (log2)” value in data set [1] is -0.228 ± 0.18; in data set [2] it was -0.613 ± 0.13.

“ACATTTGTTGATACACCCATAAATTGATAATTACAACCATAAGTTGATATTTTTCACAACCATAAGTTGATATTTTCTCTGATCATAGTCAGACCAACATTGCTACGACCCGTATTCGCACCGACAC”: the “relative integration efficiency (log2)” value is -0.275 ± 0.18 in data set [1] and -0.543 ± 0.19 in data set [2].

Turning to “ACATTTGTTGATACACCCATAAATTGATAATTACAACCATAAGTTGATATTTTTCACAACCATATATTGATATCTCCTCTGATCATAGTCAGACCAACATTGCTACGACCCGTATTCGCACCGACAC”, the “relative integration efficiency (log2)” value is -0.393 ± 0.46 in data set [1] and -0.626 ± 0.19 in data set [2].
